Data: a protein production outcome set (Wang et al. 2014)

Assay: label from the status in PepcDB records

Sequence | protein production
MPRCIIYVDFPCWHPVRQRPLRVRGRFRTFVRSHAFPSPPVSDPSPSSSDASPPDALVIIPTYNEADNIGPVIDQVLEQSPPLSVLVVDDNSTDGTADLVRSKKTDALDRVHLIERSGKLGLGTAYLRGFRYALAQDYTYICEMDADRSHDPNDLPRLIAPVREGEVALAIGSRYVEGVRVINWPLSRLVLSYGAGVYTRAITRLPLLDVTAGFKCFHRRVLETLPLDRVNSDGYAFQVEMHYRTWRAGFPFTEVPVVFTERTEGESKMRREIVVEAALKVWELRLQDLLGRL | failed
MPRLTTRALTRCLLATLALLCIALPALAAAPITPLRVMSFNVRVPVDTDGDKRWQARRGAMVSVIKQTHPDVFGTQELVSEQAGYLAAQLPNYRWFGQGRRGDDSDEHMGVFYDTRTLNVVESGNFWLSDTPEVAGSITWGNVLPRMVTWALFERRSDKRRFYLFNTHFPYRDEDEPAREHSARLILSRIAQLPADIPVVLTGDFNSDPDKITYPTLTAVLGDARARAPKRSGPENTFQDFSTHPTRRIDWILFRGLTPTQFTTLDDRPGGVLPSDHYPVLAEFAWPR | failed
MPRNNKTSLIQKIASQAYATFTNCSSSAIEDNNKVFLEHQADLVALLSDIRAADLKIAPPTKVSTSSPSVPPVTYMHICETDVFSMGVFLLKSGASIPLHDHPGMHGMLKVLYGKVSIRCYDKLDKAESDTERHFDPPLLAFQGDDVRRAALRSSGQFSELSGPCVLSPFKDNLHEIDAVDGAAAFLDILAPPYDPDDGRDCHYYRVLQTAGKKSEQSGDDEAWLLEIPQPDDFWCGGEPYPGPEVTI | not failed
MPRPLVDEVRFLRSWIEKPLHMGAVMPSGKLLARTMARYVDIQSDGPVIELGPGTGAITNALVEHGVDQKRLVLLEFDPGFCALLRERFPLAKVVQGDAYRLRDSLWDALEIPATAVVSGLPLVTKPMLTRMKLIRDAFTLLEPGAPFVQFTYSVAPPIPKSLPGVSTEGSERIWMNVPPARVWVYRKRLEHHHHHH | not failed
MPSEVTEEFIIIIAVVLIGLVLFGFVTSYFIPHEIFSLAQQQASSISSSTTVSVGPLIFNSGSASTVIEAYNPAISGNITLIVFPEPSYLQQDVGLVTPQSPPQFSVYLSNEKLAKSFTISIPIYDVNGRIIYDSQITAYTVPFNTPVTITVNGVGGSNYILIVWVLYNSNGYWFRIGYTFTGVPST | failed
MPSFLEISPDKLNRLIGTPGAPRIIDVRTDEDFALDPRLVPGSIRRDHAEVASWADSIDADAVVVVCHRGAKLSHGVAAYLRHAGIEAESLAGGFEAWAAAGPAVPEAKLEHHHHHH | failed
MPSFRRSVAAVVTALPLIAGGCAHRPAVETASPEAVQWNLSDGAETTFYYLMLDQAARSDNTRDAIEAIENLIRLSPTARVYNDSGSFLLSRKEPDLARDILTRGVAAHPDDLGLTLLLAESYLDLDRNDEAIALLRAYNAKHPKDDEARQELAQLLVKTRRYEEADKLILSIGETSRTSLLRYYHARALMGLNRLTEATAQLRKAVKASPDFLEAWAELAYVYELRKNYVEAEKIYEQILALDEGNQDVWLRLVAINIKLNNPVKAYELARQGPETFGFMLTAATLFLDDRFFEQAEGLLLAVKDSPGAPEEVYFFLAVLAYEGQRDTDATLSWLLEVRPTNKYYDRALRLRSQLLYEKGDLEAALRTAREGRETFPEQRDFREMEAQLLVNMGRSEEALRVIDKAADRWPDDSGLLFMRALILDDRGAKDAAFAAMEEVIKASPNHAQALNYVGYTLAEQERDLTRAVSLLERANTLSPDNPFILDSLAWAYFKAGRIPEAWKAISRAIELNAPDPIIWEHYGDIATAMGQKNTARRAYRKALSMNPQNPDAIKAKLDKK | failed
MPSMSPIDKSWSTCPYGFLDGTHQELRRIFHLWRCKKYRSQFTEEKKATYEEKLAASELFKDKKALYPSSVSQPFKGDYVEITKNPKYQKLNSLVEDKVLLADVVSKINRANGKGTPRIFLLTKKCLVLADQKTGQVKASVPLPDLSSVFVSTQNDGFFALKLREGATSAAKGDYLLSSDRLIEIITKLYCTGAASAERNQIKIDISDEFLVQFKQDKVCVKFIQGTPKNSNSVSCKRKNNRLLEVSVPSP | failed
MPSQDWERSVLGCSMQVGQGWCCVDLSDISCVQDVAKEVLDCYGCVDILINNASVKVKGPAHKISLELDKKIMDANYFGPITLTKVLLPNMISRRTGQIVLVNNIQAKFGIPFRTAYAASKHAVMGFFDCLRAEVEEYDVVVSTVSPTYIRSYRASPEQRNWETSICKFFCRKLAYGVHPVEVAEEVMRTVRRKKQEVFMANPVPKAAVFIRTFFPEFFFAVVACGVKEKLNVPEEG | failed
MPSQLGITLKQVRLQQHLSQATVATGICAQSMLSAIENGKYTPNATLLMRLCQRLKISLDQLSLAENFTISDLEQINDRLAKLCNHHRYADLREFLLTDAVQARLTTDVQLAAYYYYLGITDFQLGHLTDAQQQFQLALASAPAQHRTTLSRLCWMSLALIHASRQQANASEEAMTQAVTQLKTAPYEANLNSLFYLAAVSHLKLNQLTIAAQWLERGIDFATDHDSHYMLANDYHLLAVIASRSEQIDQQRTAQATEHVLTTLFHESIYDRLD | failed
MPSSDLRAFVVRVVIVLALVAYAWLLWALSGLLLMVFGAVVVAVLLRALASWVTRYTPLSDGMALGLVVVVVAVGFTALLWLFGSQLATELGALQRTLPQAWARFHDWVAAGPLGPALEELTRQAPARVSNLAPRAGAFALSITGGVANLFLVLAGAVYLAAQPQLYRRGVLLLFPVQVRATMDDAVRASGTALRLWLRGQLLAMVVVGALTGLGLWALGIPGALALGIIAGLLDFVPIVGPILAAIPAILLGFTVSPQMALATAALFVVVQQIEGNILLPLIQQRTVDLPPVLLLFSLFGIGTLLGPAGVLLAAPLTVVAFVLVKRLYVQEALHTPTSIPGQKHH | failed
MPSSSASLIPSLRQASRQMVRELGFMQATLAATDYPPSAVHALLEIGQGNALTAGDLVTLLGLEKSSVSRLVRKLVDAGEISEQAHDQDARSKKLQLSARGRQTLAGIDRFAQAQVAAALAHLSPAQQRSACAGIADYARALRAVRLGDVPEPPERCSIARGYRPGVIGRIAEMHARYYADLAGFGQPFESLVARDMAELMGRLHNPRNEVWVALQGERIVGSIAIDGEGEGGEALLRCFILDEAARGQGLGRRLLAEALGFCDQWGFAATRLWTFKGLDAARALYEEQGFVLVQEQEGEQWGAPVTEQCFVRARVAQRDTIR | failed
MPTATDARGHTVTLDHRPRRILSLVPSQTELLAHLDLADEVVGITRFCERPEHWRSEKAIVGGTKQVDFDTVRDLDPDLVLANHEENTAEDVETLDEIAPVFVTEVKTVEDALGMIRTVGTLTETSDQTSTLVGKIISRFESLPDFTSLRAAYLIWRDPYMTIGNDTFIHDVMHWGGLENAYGDQTRYPDVTIADLAEQDLDVVLCSSEPFPFHEKDAFTADLREALPDTSVEIVDGQPFSWYGPRLLDTPSYLKTLRERLPTPAPRR | failed
MPTFDHGNLSLGELELTVLYDEERYDIVEQTETVQVDLEGPRGVLTVFRFARPSYEVFVDLTEAGEGSHTVDVEHRGFPGDLAVTVEPRMARVQLEERQTVSVPVTVEMINLEHHHHHH | not failed
MPTLQLFIYIIGFLFLMYMAWSLWTEKPSNIEEIEPMSAKKQILFALSVSLLNPHAIMDTVGVIGTSASVYDGYDKVVFSLATISVSWIWFVFLAILGRITGKIDKSGKYIVILNKVSSVIVIIVGLIILKNIVGILS | failed
MPTPTYPKASLIIRERGLPKREVLLSPDRQWTIGRQLDCSIRLTDAYVSRLHAVINAFLFRGQPLYFIRDAHSRNGTFLNGFPLQHSTLLHHEDVIGVGTTLLVFYYPDMFREISLDECPELTKGSTDSLPWRS | failed
MPTTKQLKDTELPLNFFEHSSLETIELFIQHLTEAMILVNANGFIRSCNQRSAELLDCPQVSLKGQDWRNFLTEHHQARYDNLLSHDVQLGTNCGQPVQHPAQETTLICASGKAKDVELSISYIPGHEPMFVMVMHDLTHHKAELEHHHHHH | not failed
MPTVFIFLTAVYAGLGAFAWHCQQQGRGRDYPWKTELPVLGAALTVHGAALLMPVIQDKIIIMGFGYSGSLIVWMMLFIYFAGSFFYPLRGVQLLLYPCAALMLLSGLVFPGKFSGYEITDFPFMLHIGTSLLAYGLFGIATLLSVLSLLLHRSLHRRNFSKLAGFLPSLLSLEKLMFQAMWAGFILLTYSVVSGTFFAEAVFGKPMTFTHKTVFGILSWLIYGGLLLKHSMTAWRGKKAAVWTIIGFVSLMIAYMGSKFVLEIILKR | failed
MPTYLFLSSGNVLADRRYDFARELLARGEAEAAADLLAQAVELAPDFTSAWFALGEIRQDRLGNREGAVDAFRRARAADPRDRHGAGLRLMRLGAADLDAMSPAYIGALFDQYAPRFDKSLVEDLGYRGPALLFEAVREVCETTGRAMAFRRAIDLGCGTGLVGRAFAPIISEIIGFDLAPQMIERARATGVYGRLAVTDLVQGLANEPPASAELILAADVLIYIQDVAPLLHEAARVLPPGGLLAVTAETHAGDGVVLTAGLRFAQAESYLRAELERAGLVVALLQYASARNEKHTPLPGLVVVAFRPNG | failed
MPTYSAMANTDGGIVILGVRERKGQFEVAGIENPDKLRTELFNHLNNRQKVSVNLLRDEDVRAWPVEGKTLLVVEIPRARRQQRPVYLRGNPLGGHTYRRLHEGDRPLEHHHHHH | failed
MPVCWSHRSDSRPASNATPLSGPVGWAHQAAPLQRLLHGTAPVILSPALEPPQHKDPAMPKLASIHLYPIKSTAGMPLTRALVTEEGLQGDRRYMVVKPDGSFITARTHPQLQQVVATPIEGGLQLRYPGLDPLILQEREFSRTPRATGVWSDSFSALQTQPQADQWLSQVAGEPVQLLWLGEESARFREKTGTRVSFADGYPLLLISQASLEDLNLRSDALHQMSQFRTNLVASGTLPFEEDGWKRIRIGEVEFRVAKPCSRCIMTTVEPGTDRFNALKEPLATLTRYRRGEDGEVYFGQNLVALNEGWIEAGSEIEVLERARAPVYPNAAPKKRELVCVAREPLARDLETFWFEAADGEPLPDYLPGQHLPISLDIGLGLRRERLQRRYTLSSTPERPERYSISVKKVGGGRISHWLHQQLQPGDRLLAAAPAGEFHLGTGRSLLLLSAGSGVTPMLSIARTLALRGELGDVHFMHLCRSEADIPAAGELHALAQQGMTLTLILSQPDTHWQGLKGRLGDDHLKQVKQLAEREVFICGPHGFMADAAARLVALGVPAERIRQESFGGAILSVARPHQAVQLRIGKQSFAGNNQGTVLDQAHKQGVDLPWSCRAGICGSCKQTLLEGEVDHPDAPAITAAERAEGKILTCCAVPLTDLVIK | failed
MPVDAKTKYKAKKIKIVFFDIDDTLRVKKTGYIPESIKAVFKGLKEKGILTGIATGRGYYGVVEEILDLEPDYFVTINGTYVINRKGEEIYNQPLAREVTEAFVAWCKEIGIAWGFAGKDKPVVSERSELIDDAIVPIYGICDVEPDFHLTNDVYQMWTFAENNGDLKLPEELAAHVRLVPWHEHSSDVVATGISKASGVGHVLEHENLTPVNAMMFGDGPNDKEIFDYVGLKIAMGNATPELKAKADYVTGTVEEDGIFNALEELGLVEKELHFPQLDLDTVEGPVATIKTNHGDLVIKLFPDHAPLAVTNFVNLAKSGYYDGVIFHRIIKDFMIQGGDPTGTGMGGESSFGGSFQDEFSEELYNLRGALSMANAGPDTNGSQFFIVQAPEIPYAKKELERGGWPAPIAEAYAENGGTPHLDRRHTVFGHLVDEASYKVLDEIANVEVGTQDKPLEEVVIETIEVTDLEHHHHHH | not failed
MPVDKNLRDLEPGIHTDLEGRLTYGGYLRLDQLLSAQQPLSEPAHHDEMLFIIQHQTSELWLKLLAHELRAAIVHLQRDEVWQCRKVLARSKQVLRQLTEQWSVLETLTPSEYMGFRDVLGPSSGFQSLQYRYIEFLLGNKNPQMLQVFAYDPAGQARLREVLEAPSLYEEFLRYLARFGHAIPQQYQARDWTAAHVADDTLRPVFERIYENTDRYWREYSLCEDLVDVETQFQLWRFRHMRTVMRVIGFKRGTGGSSGVGFLQQALALTFFPELFDVRTSVGVDNRPPQGSADAGKRLEHHHHHH | not failed
